Results on one molecule are retold here after paper PMC3362532, “Targeting Melanoma Metastasis and Immunosuppression with a New Mode of Melanoma Inhibitory Activity (MIA) Protein Inhibition” (PLoS ONE, 2012).

The target of assay [1] is T1, recombinant human MIA, wild type (human, UniProt Q16674 25-131).
T1 construct: The printed residue numbers (C17, C106) fit the mature protein without its signal peptide; The vector may add a His tag; also called wt MIA; wild-type (wt) MIA; source: in vitro expression, Rapid Translation System RTS 500 E. coli HY Disulfide Kit (cell free)
T1 sequence (looked up): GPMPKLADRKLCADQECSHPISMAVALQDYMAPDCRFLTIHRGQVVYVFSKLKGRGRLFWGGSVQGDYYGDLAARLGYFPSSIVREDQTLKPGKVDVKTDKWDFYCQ
The experiment in a line: NMR titration; 2D 1H-15N HSQC of uniformly 15N-enriched MIA with increasing amounts of AR71, 300 K, pH 7. As to conditions: both partners purified.

The target in assay [2] is T2, human MIA protein labelled for the HTFP assay (MIA-biotin conjugate immobilised; MIA-Ru(bpy)3 in solution) (human, UniProt Q16674 25-131, Ru(bpy)3 (from Ru(bpy)3-isothiocyanate) on the copy in solution; biotin on the immobilised copy; sites not stated).
T2 construct: human MIA protein; source: human MIA protein labeled with Ru(bpy)3-isothiocyanate, purified over a size exclusion column (Sephadex G75 M PD-10)
T2 sequence (looked up): T1 sequence (looked up)
The experiment in a line: fluorescence polarisation; heterogeneous transition-metal-based fluorescence polarization (HTFP) assay: MIA-biotin immobilised in streptavidin-coated 96 well plates, MIA-Ru(bpy)3 in solution, RT, 250 uL per well, P/P0 against a well without MIA-biotin; peptides at 1.6 uM. The following applies: both partners purified.

In the case of Ac-FHWRYPLPLPGQ-NH2 [dodecapeptide AR71], the binding result in assay [1] and in assay [2] was “binds” in each case.
